Data published in patent publication US20150246947A1 (BAXALTA, published 2015).

Columns and labels:
human Protein S [1] = molecular target: T1, human Protein S (human, UniProt P07225 42-676); assay: competition ELISA IC50
T1 construct: Called 'full length Protein S' / 'human full-length Protein S'; It was coated on plates (ELISA), Eu-labeled (LANCE) or immobilized on a chip (Biacore); also called PS; full length Protein S
T1 sequence: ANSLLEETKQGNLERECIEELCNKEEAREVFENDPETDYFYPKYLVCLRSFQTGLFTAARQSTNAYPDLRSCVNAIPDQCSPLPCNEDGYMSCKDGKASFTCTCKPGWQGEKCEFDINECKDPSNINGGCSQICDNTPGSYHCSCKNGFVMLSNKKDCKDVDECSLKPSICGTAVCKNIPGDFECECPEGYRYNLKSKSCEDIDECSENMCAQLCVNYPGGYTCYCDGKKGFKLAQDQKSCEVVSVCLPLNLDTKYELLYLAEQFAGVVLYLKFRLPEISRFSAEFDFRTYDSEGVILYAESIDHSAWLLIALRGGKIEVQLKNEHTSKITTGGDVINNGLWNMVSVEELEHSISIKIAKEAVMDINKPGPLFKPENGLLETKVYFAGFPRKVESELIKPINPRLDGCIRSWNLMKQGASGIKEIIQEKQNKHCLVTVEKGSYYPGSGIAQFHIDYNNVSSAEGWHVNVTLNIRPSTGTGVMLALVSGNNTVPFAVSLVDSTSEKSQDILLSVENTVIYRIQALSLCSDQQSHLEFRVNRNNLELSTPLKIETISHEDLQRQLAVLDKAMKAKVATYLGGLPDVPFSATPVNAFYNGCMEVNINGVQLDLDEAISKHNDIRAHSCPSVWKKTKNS
Protocol: The competition (IC50) ELISA was performed using biotinylated tracer peptide JBS0684 to compete for Protein S-binding with candidate peptides. Peptides that compete with the tracer bind the same region of Protein S as the tracer (and each other). Ninety-six well PolySorp plates (Nunc) were coated with 3 μg/mL Protein S in coating buffer (15 mM Na₂CO₃, 35 mM NaHCO₃, pH 9.6) over night. […] Plates were then washed three times with HNaT. JBS0684 was applied at a concentration corresponding to the EC90 value determined in the binding ELISA. A competitor stock solution of peptide (10 mM) was diluted 1/33.3 in HNaT without HSA, and a serial 1/3 dilution was prepared with HNaT with 3% DMSO. The dilution was further diluted with the biotinylated tracer peptide in a ratio of […] (20 μl competitor dilution and 100 μl tracer peptide). The mixture of competitor and tracer peptide was applied to the Protein S-coated microtiter plate and incubated for 1.5 hours. The plates were washed three times with HNaT. Peptide-Protein S binding was detected by applying HRP-conjugated streptavidin to the microtiter plate, incubating the mixture for one hour, washing the plate three times with HNaT, applying TMB (3,3′5,5′-Tetramethylbenzidin), and detecting the subsequent chromogenic conversion of TMB by HRP. IC50 measurements of peptides are provided herein (see, e.g., Table 3). […]

human Protein S [2] = molecular target: T1, human Protein S; assay: cell-based or functional assay
human Protein S [3] = molecular target: T1, human Protein S; assay: Biacore (SPR), Protein S immobilized, 25 °C
Protocol: (§1) Protein S affinity also was determined via Biacore (Biacore 3000 or Biacore T200) using human full-length Protein S and human GAS6. Briefly, 1000 RU of Protein S or GAS6 were immobilized on a CMS chip. In order to probe the kinetics of Protein S binding peptides to Protein S, the peptides were injected at various concentrations in a HBS-buffer containing 3 mM CaCl₂ and 1% DMSO to the flow cell and allowed to interact with the immobilized proteins on the sensor chip. The chip could be regenerated with 4 M MgCl₂ in HBS-buffer. Sensorgrams were fitted to a Langmuir binding model for the determination of kₒₙ and koff and the calculation of KD. Peptides were tested on their specificity to Protein S with peptide binding studies on the anti-target GAS6.

human Protein S [4] = molecular target: T1, human Protein S; assay: Biacore (SPR), Protein S immobilized, 37 °C
Protocol: as §1

human Protein S [5] = molecular target: T1, human Protein S; assay: LANCE TR-FRET competition; Protein S 2 nM, competitor tracer JBS0684 60 nM; Tecan F500 reader
Protocol: Peptides also were characterized in a competition, homogenous europium-based TR-FRET assay (LANCE IC50 assay) using JBS0684 as a tracer (i.e., competitor for Protein S binding). […] The final volume was 50 μl/well. […] Binding of tracer peptides to soluble europium-labeled Protein S was detected by Streptavidin labeled with an acceptor fluorophor (ULight™). Inhibition of tracer-binding to Protein S by a non-biotinylated peptide results in a decrease of TR-FRET between the Eu-labeled Protein S and ULight™-labeled Streptavidin. IC50 values were obtained from peptide titration curves at constant tracer concentration using non-linear regression of the fluorescence emission signals at 665 nm.

human Protein S [6] = molecular target: T1, human Protein S; assay: LANCE TR-FRET competition; Eu-Protein S 10 nM, competitor tracer JBS0684 300 nM; Molecular Devices M5 reader
Protocol: Peptides also were characterized in a competition, homogenous europium-based TR-FRET assay (LANCE IC50 assay) using JBS0684 as a tracer (i.e., competitor for Protein S binding). The following reagents were mixed together in a Perkin-Elmer ProxiPlate MTP well (indicated concentration is the final concentration): Eu-labeled Protein S (10 nM), Ulight™-labeled Streptavidin (100 nM), tracer (JBS0684 (300 nM)), and peptide (titrated in three-fold dilution steps). The final volume was 50 μl/well. The reaction mix was incubated for 1 hour at room temperature, then the fluorescence emission at 665 nm was recorded on a multi-mode reader (SpectraMax® M5, Molecular Devices) using the following instrument settings: Ex 340 nm, Em 665 nm, delay 50 μsec, integration 100 μsec, reads 100. Binding of tracer peptides to soluble europium-labeled Protein S was detected by Streptavidin labeled with an acceptor fluorophor (ULight™). Inhibition of tracer-binding to Protein S by a non-biotinylated peptide results in a decrease of TR-FRET between the Eu-labeled Protein S and ULight™-labeled Streptavidin. IC50 values were obtained from peptide titration curves at constant tracer concentration using non-linear regression of the fluorescence emission signals at 665 nm.

Binder: Ac-TGLVSAGWYDYNFDHYREFT-NH2 (also called parent peptide JBS2572) [JBS2572]
- fold increase in affinity compared to JBS2512 (human Protein S [1]): 1.6 fold
- CAT EC50 (human Protein S [2]): 151 nM
- Kd (human Protein S [3]): 6 nM
- koff (human Protein S [3]): 0.00148 s⁻¹
- kon (human Protein S [3]): 248000 M⁻¹ s⁻¹
- Kd (human Protein S [4]): 3.8 nM
- koff (human Protein S [4]): 0.00431 s⁻¹
- kon (human Protein S [4]): 1.14e+06 M⁻¹ s⁻¹
- IC50 (human Protein S [5]): ~10 nM
- IC50 (human Protein S [6]): 49 nM
